According to US20130210709A1 (ANCHOR THERAPEUTICS, published 2013):
Square brackets hold non-standard residues; d marks the D form. * marks the point of attachment. Palmitoyl = CCCCCCCCCCCCCCCC(=O)*

What follows are binders tested against CXCR4 receptor (human, UniProt P61073 1-352) (assay: cell-based or functional assay).
Sequence of CXCR4 receptor (P61073 whole entry): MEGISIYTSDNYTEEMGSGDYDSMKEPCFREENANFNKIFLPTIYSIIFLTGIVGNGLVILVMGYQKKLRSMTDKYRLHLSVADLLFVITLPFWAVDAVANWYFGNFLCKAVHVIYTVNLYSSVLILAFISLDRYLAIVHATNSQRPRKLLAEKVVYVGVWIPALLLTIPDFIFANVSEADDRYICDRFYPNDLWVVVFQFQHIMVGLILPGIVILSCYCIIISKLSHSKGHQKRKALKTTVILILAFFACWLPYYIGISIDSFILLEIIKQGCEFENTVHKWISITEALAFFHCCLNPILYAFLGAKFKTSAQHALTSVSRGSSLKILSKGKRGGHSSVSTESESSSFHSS

Row | Binder | IC50 (nM), calcium flux, CCRF-CEM [nM]
1 | Palmitoyl-MGYQKKLR[dS]MTDKYRL-NH2 [CXCR4 i1 loop compound 172] | 90
2 | Palmitoyl-[dM]GYQKKLRSMTDKYRL-NH2 [CXCR4 i1 loop compound 165] | 112
3 | Palmitoyl-MGYQKK[dL]RSMTDKYRL-NH2 [CXCR4 i1 loop compound 170] | 72
4 | Palmitoyl-MGYQAKLRSMTDKYRL-NH2 (SMILES CCCCCCCCCCCCCCCC(=O)N[C@@H](CCSC)C(=O)NCC(=O)N[C@@H](Cc1ccc(O)cc1)C(=O)N[C@@H](CCC(N)=O)C(=O)N[C@@H](C)C(=O)N[C@@H](CCCCN)C(=O)N[C@@H](CC(C)C)C(=O)N[C@@H](CCCNC(=N)N)C(=O)N[C@@H](CO)C(=O)N[C@@H](CCSC)C(=O)N[C@H](C(=O)N[C@@H](CC(=O)O)C(=O)N[C@@H](CCCCN)C(=O)N[C@@H](Cc1ccc(O)cc1)C(=O)N[C@@H](CCCNC(=N)N)C(=O)N[C@@H](CC(C)C)C(N)=O)[C@@H](C)O) [CXCR4 i1 loop compound 133] | 200
5 | Palmitoyl-MGYQKKLRS[dM]TDKYRL-NH2 [CXCR4 i1 loop compound 173] | 97
6 | Palmitoyl-MGY[dQ]KKLRSMTDKYRL-NH2 [CXCR4 i1 loop compound 167] | 116
7 | Palmitoyl-MGYQKKL[dR]SMTDKYRL-NH2 [CXCR4 i1 loop compound 171] | 72
8 | Palmitoyl-MGYQKKLASMTDKYRL-NH2 (SMILES CCCCCCCCCCCCCCCC(=O)N[C@@H](CCSC)C(=O)NCC(=O)N[C@@H](Cc1ccc(O)cc1)C(=O)N[C@@H](CCC(N)=O)C(=O)N[C@@H](CCCCN)C(=O)N[C@@H](CCCCN)C(=O)N[C@@H](CC(C)C)C(=O)N[C@@H](C)C(=O)N[C@@H](CO)C(=O)N[C@@H](CCSC)C(=O)N[C@H](C(=O)N[C@@H](CC(=O)O)C(=O)N[C@@H](CCCCN)C(=O)N[C@@H](Cc1ccc(O)cc1)C(=O)N[C@@H](CCCNC(=N)N)C(=O)N[C@@H](CC(C)C)C(N)=O)[C@@H](C)O) [CXCR4 i1 loop compound 136] | 302
9 | Palmitoyl-MGYQKALRSMTDKYRL-NH2 (SMILES CCCCCCCCCCCCCCCC(=O)N[C@@H](CCSC)C(=O)NCC(=O)N[C@@H](Cc1ccc(O)cc1)C(=O)N[C@@H](CCC(N)=O)C(=O)N[C@@H](CCCCN)C(=O)N[C@@H](C)C(=O)N[C@@H](CC(C)C)C(=O)N[C@@H](CCCNC(=N)N)C(=O)N[C@@H](CO)C(=O)N[C@@H](CCSC)C(=O)N[C@H](C(=O)N[C@@H](CC(=O)O)C(=O)N[C@@H](CCCCN)C(=O)N[C@@H](Cc1ccc(O)cc1)C(=O)N[C@@H](CCCNC(=N)N)C(=O)N[C@@H](CC(C)C)C(N)=O)[C@@H](C)O) [CXCR4 i1 loop compound 134] | 250
10 | Palmitoyl-MGYQK[dK]LRSMTDKYRL-NH2 [CXCR4 i1 loop compound 169] | 88
11 | Palmitoyl-MGYQKKLRSMT[dD]KYRL-NH2 [CXCR4 i1 loop compound 163] | 623
12 | Palmitoyl-MGAQKKLRSMTDKYRL-NH2 (SMILES CCCCCCCCCCCCCCCC(=O)N[C@@H](CCSC)C(=O)NCC(=O)N[C@@H](C)C(=O)N[C@@H](CCC(N)=O)C(=O)N[C@@H](CCCCN)C(=O)N[C@@H](CCCCN)C(=O)N[C@@H](CC(C)C)C(=O)N[C@@H](CCCNC(=N)N)C(=O)N[C@@H](CO)C(=O)N[C@@H](CCSC)C(=O)N[C@H](C(=O)N[C@@H](CC(=O)O)C(=O)N[C@@H](CCCCN)C(=O)N[C@@H](Cc1ccc(O)cc1)C(=O)N[C@@H](CCCNC(=N)N)C(=O)N[C@@H](CC(C)C)C(N)=O)[C@@H](C)O) [CXCR4 i1 loop compound 131] | 147
13 | Palmitoyl-MGYAKKLRSMTDKYRL-NH2 (SMILES CCCCCCCCCCCCCCCC(=O)N[C@@H](CCSC)C(=O)NCC(=O)N[C@@H](Cc1ccc(O)cc1)C(=O)N[C@@H](C)C(=O)N[C@@H](CCCCN)C(=O)N[C@@H](CCCCN)C(=O)N[C@@H](CC(C)C)C(=O)N[C@@H](CCCNC(=N)N)C(=O)N[C@@H](CO)C(=O)N[C@@H](CCSC)C(=O)N[C@H](C(=O)N[C@@H](CC(=O)O)C(=O)N[C@@H](CCCCN)C(=O)N[C@@H](Cc1ccc(O)cc1)C(=O)N[C@@H](CCCNC(=N)N)C(=O)N[C@@H](CC(C)C)C(N)=O)[C@@H](C)O) [CXCR4 i1 loop compound 132] | 213
14 | Palmitoyl-MGYQKKARSMTDKYRL-NH2 (SMILES CCCCCCCCCCCCCCCC(=O)N[C@@H](CCSC)C(=O)NCC(=O)N[C@@H](Cc1ccc(O)cc1)C(=O)N[C@@H](CCC(N)=O)C(=O)N[C@@H](CCCCN)C(=O)N[C@@H](CCCCN)C(=O)N[C@@H](C)C(=O)N[C@@H](CCCNC(=N)N)C(=O)N[C@@H](CO)C(=O)N[C@@H](CCSC)C(=O)N[C@H](C(=O)N[C@@H](CC(=O)O)C(=O)N[C@@H](CCCCN)C(=O)N[C@@H](Cc1ccc(O)cc1)C(=O)N[C@@H](CCCNC(=N)N)C(=O)N[C@@H](CC(C)C)C(N)=O)[C@@H](C)O) [CXCR4 i1 loop compound 135] | 175
15 | Palmitoyl-MGYQKKLRSM[dT]DKYRL-NH2 [CXCR4 i1 loop compound 164] | 322
16 | Palmitoyl-MGYQKKLRSMTD[dK]YRL-NH2 [CXCR4 i1 loop compound 162] | 291
17 | Palmitoyl-MG[dY]QKKLRSMTDKYRL-NH2 [CXCR4 i1 loop compound 166] | 129
18 | Palmitoyl-MGYQ[dK]KLRSMTDKYRL-NH2 [CXCR4 i1 loop compound 168] | 119
19 | Palmitoyl-MAYQKKLRSMTDKYRL-NH2 (SMILES CCCCCCCCCCCCCCCC(=O)N[C@@H](CCSC)C(=O)N[C@@H](C)C(=O)N[C@@H](Cc1ccc(O)cc1)C(=O)N[C@@H](CCC(N)=O)C(=O)N[C@@H](CCCCN)C(=O)N[C@@H](CCCCN)C(=O)N[C@@H](CC(C)C)C(=O)N[C@@H](CCCNC(=N)N)C(=O)N[C@@H](CO)C(=O)N[C@@H](CCSC)C(=O)N[C@H](C(=O)N[C@@H](CC(=O)O)C(=O)N[C@@H](CCCCN)C(=O)N[C@@H](Cc1ccc(O)cc1)C(=O)N[C@@H](CCCNC(=N)N)C(=O)N[C@@H](CC(C)C)C(N)=O)[C@@H](C)O) [CXCR4 i1 loop compound 130] | 125
